Here are results for 60 sequences from PMC4234207.

One series deals with T1, GST-FKH-FoxA2 (Rattus norvegicus (rat; cloned from genomic DNA)) (UniProt P32182).
T1 sequence (P32182 145-290, looked up): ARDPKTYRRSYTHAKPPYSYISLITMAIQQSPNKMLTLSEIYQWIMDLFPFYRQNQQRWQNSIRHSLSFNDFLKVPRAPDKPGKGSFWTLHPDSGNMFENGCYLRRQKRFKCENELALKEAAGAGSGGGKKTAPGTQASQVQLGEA
The series is described as follows: competition EMSA. The conditions noted are these: 25 mM HEPES pH 7.6, 150 mM KCl, 0.2 mM EDTA, 0.2 mM EGTA, 10% glycerol, 1 mM DTT, 3 ug protein, 1 ng 32P-TTR probe, 2/5/20 ng competitor, on ice 15 min; 4% ….
In turn, “CAGTAGAGGTCTTCCTCTTTGCCCATGTTGTGGG (double strand) [non-site chr7:26648074]” registered a binding signal (EMSA score (TTR=1)) of -0.16.
In the case of “CAGTCCAGGGGACCTGTTTACCTTACATAG (double strand) [FoxA BS chr17:45901267]”, the binding signal (EMSA score (TTR=1)) came to 0.7.
“CAGTCCTTGTGCTTATTTACATACCCCGCC (double strand) [FoxA BS chr19:12527263]” showed a binding signal (EMSA score (TTR=1)) of 0.84.
The sequence “CAGTACTAGATGTTTACTTTAAGGGACCAG (double strand) [FoxA BS chr9:107745824]” displayed a binding signal (EMSA score (TTR=1)) of 1.3.
On the same count and under the same terms, the same measure for “CAGTAGGGTCAAGGTAGTTTGCATATCTTCCAAC (double strand) [non-site chr7:83767529]”: 0.24; for “CAGTACCCCAGGATTTGTGGGCTGTGGGTGTGGC (double strand) [non-site chr7:44970992]”: -0.11; for “CAGTGCGGCGCTGTGTTTACCTTCCGGGAG (double strand) [FoxA BS chr11:85168610]”: 1.08.
In turn, “CAGTTATCAATGTTTGTTTACCTTGTGGCT (double strand) [FoxA BS chrX:6878436]” returned a binding signal (EMSA score (TTR=1)) of 1.65.
Still for that read-out and setting: the value for “CAGTTATCTGTACTTTATTTTCAAACGCTATAAT (double strand) [non-site chr8:96902217 b]” was -0.01; that for “CAGTTTGGGTCAATATTTATTCTTTCATTT (double strand) [FoxA BS chr19:38189585]” was 0.48.
Same read-out and setting: the value for “CAGTCAGCTCCCATGTTTACCAGGCCTTGA (double strand) [FoxA BS chr6:121311851]” was 0.57.
On the same count and under the same terms, the same measure for “CAGTCAGTGGAAGGCTGTTAACTGTGCCTGCTGC (double strand) [non-site chr13:40870570]”: -0.02; for “CAGTGGATGCCTCTATTTGTTTAATCACAG (double strand) [FoxA BS chr9:122199103]”: 1.1.
Sequence “CAGTGTTCAGAGCTGTTTACTTGAACGCGA (double strand) [FoxA BS chr6:34792983 b]” had a binding signal (EMSA score (TTR=1)) of 0.53.
The same measure, in the same setting: the same measure for “CAGTGAGGCGGGGTGTTGACTCTTACGCCA (double strand) [FoxA BS chr8:112454327]”: 0.33; for “CAGTAGGTTTCTCTATTGACTCTATTGCCT (double strand) [FoxA BS chr11:45798706]”: 0.49; for “CAGTTGCGCCCCGGGTGTTGGCAGCGAGAAGTGG (double strand) [non-site chr12:77880754 b]”: 0.03.
On the same count and under the same terms, the same measure for “CAGTGTGAGTGTGTGTGTGTATACAGCGTGAGTC (double strand) [FoxA BS chr15:59478046]”: 0.26; for “CAGTACTCATCCTGCTATTGACAGTCGGATATAT (double strand) [FoxA BS chr7:29476412]”: 0.4.
Take “CAGTCCCTATCTGTGTTTACAGCTGGTTTC (double strand) [non-site chr5:139643316]”: the binding signal (EMSA score (TTR=1)) worked out at 0.18.
With “CAGTCACCGTTGTTTGTTCTGTGACAAATA (double strand) [FoxA BS chr19:56926814]”, the binding signal (EMSA score (TTR=1)) was 0.68.
Regarding “CAGTGGTCACCCTTTGGTTTACCTTTTAGGAACA (double strand) [FoxA BS chr8:96902217 a]”, the binding signal (EMSA score (TTR=1)) was determined as 0.52.
The same measure, in the same setting: the same measure for “CAGTAGCGCCTGCAGTTTACCTTGGCTCCG (double strand) [non-site chr9:102865800]”: 0.13; for “CAGTCTTGAGGCCTGTTTACCGTCCAGTTA (double strand) [FoxA BS chr19:44039737]”: 0.43; for “CAGTGCTAGATCCAGTTTTTACACAGAAAGTTTC (double strand) [non-site chr8:13025407 b]”: -0.06.
The sequence “CAGTTCATGCCACAGTTTACTCTGGTCCCT (double strand) [non-site chr1:154160175]” yielded a binding signal (EMSA score (TTR=1)) of 0.24.
Still for that read-out and setting: the same measure for “CAGTTTCAAAGCTTGTTGACGGAGAGAAAT (double strand) [non-site chr17:25500984]”: 0.2; for “CAGTCTGAGAAACCTTGTTGATCTCAGGCAACCC (double strand) [non-site chr8:13025407 a]”: 0.07; for “CAGTTGGCCCCAGTATTTACATTTCTAACA (double strand) [FoxA BS chr15:54962925]”: 0.92.
Still for that read-out and setting: the value for “CAGTGTGTTCCTATGTGTACACAGTACTTG (double strand) [FoxA BS chr4:3604382]” was 0.91.
With “CAGTAGCCCCTCCTGTGTTGTCTTCCAGTAGATG (double strand) [non-site chr7:59095749]”, the binding signal (EMSA score (TTR=1)) worked out at 0.09.
In turn, “CAGTATGTGTTGTTGTTGACTTTAAGGTCG (double strand) [FoxA BS chr9:107420590]” came in with a binding signal (EMSA score (TTR=1)) of 0.93.
On the same count and under the same terms, the value for “CAGTTGCTGGCCTAATGTGGACACAGGGGGTTCC (double strand) [FoxA BS chr3:83135377]” was 0.64; that for “CAGTCTCCTCCATTGTGTACACTCCCCCTC (double strand) [FoxA BS chr7:44717527]” was 0.49.
Still for that read-out and setting: the value for “CAGTGCGTGCATTGGTGTTCGCTCAGAGCGGGAC (double strand) [non-site chr6:5446118]” was 0.
The same measure, in the same setting: the same measure for “CAGTCTCTGCCCCTCTATTGGTCTAGCTCTCCAA (double strand) [non-site chr16:22806861]”: 0.06; for “CAGTTGGGCATATTTGCTCAGAACCTGGTA (double strand) [FoxA BS chr1:159362347]”: 0.37; for “CAGTCCTGGCTTTCCTGCTTACCCAACAACCGCT (double strand) [non-site chr3:94456673 b]”: 0.07.
“CAGTTGCCTTTCTGTTTGTTGTTTTGGAGG (double strand) [non-site chr5:30822343]” registered a binding signal (EMSA score (TTR=1)) of 0.21.
Sequence “CAGTCCGGGATTGGCTGTTTGTAATCTGCTCGAC (double strand) [non-site chr17:74394072]” displayed a binding signal (EMSA score (TTR=1)) of 0.
Still for that read-out and setting: the value for “CAGTGTTGCCCGTCGTATTTGTATATGGTTTCCT (double strand) [FoxA BS chr10:79387812]” was 0.58.
Same read-out and setting: the same measure for “CAGTCCCGGGCCTGTTTGCTTTTCCATACA (double strand) [FoxA BS chr12:8003233]”: 0.5; for “CAGTCGTGACCTTTGTTGACTCGCGTCAGT (double strand) [FoxA BS chrX:17319260]”: 0.53; for “CAGTCTGCGGCGCCAGATTTACACAGCGCGAGGA (double strand) [FoxA BS chr7:15773405]”: 0.25.
Same read-out and setting: the same measure for “CAGTAAGGTTATTATTATTTGTTTTATTTTGTTT (double strand) [FoxA BS chr10:75378448]”: 0.83.
Take “CAGTATTTATTTGTATGTATTTTGAGACAG (double strand) [FoxA BS chr3:116606401]”: the binding signal (EMSA score (TTR=1)) amounted to 0.38.
“CAGTCATATAGGCTCTGTTTGAACATTAATTAAC (double strand) [FoxA BS chr15:82621996 b]” registered a binding signal (EMSA score (TTR=1)) of 0.31.
The same measure, in the same setting: the same measure for “CAGTTGGAGTAGTTATTTACCTTAGCAGCC (double strand) [FoxA BS chr16:13816438]”: 0.81; for “CAGTCTCTGAGTGACTGTTTTCTGTAATACCCAA (double strand) [non-site chr15:91019750]”: 0.01.
On the same count and under the same terms, the value for “CAGTGCAACAAGTTGTTTACACTCTTCATT (double strand) [FoxA BS chr6:34792983 a]” was 0.82; that for “CAGTGGGACCTGTCTTGTTGACCCATCACGTCAC (double strand) [FoxA BS chr17:32151628]” was 0.47; that for “CAGTGGAACCTCTGATGTTGACTTTCCCTTGATT (double strand) [FoxA BS chr15:82621996 a]” was 0.38.
In the case of “CAGTATTGGACATTGTTTATTTGTTTTGCC (double strand) [FoxA BS chr1:141375708]”, the binding signal (EMSA score (TTR=1)) was found to be 1.21.
Still for that read-out and setting: the same measure for “CAGTTCACCTGAGGGTGTGTACACAGTCTCTCAG (double strand) [FoxA BS chr7:100410756]”: 0.56; for “CAGTAAGCCTCGCGTTGTTTGGTTAAGGGGCAGG (double strand) [FoxA BS chr1:7078701]”: 0.83; for “CAGTCGTCTTCCCTGTGTGCTTACTATGCA (double strand) [non-site chr12:85340663 b]”: 0.07.
The same measure, in the same setting: the value for “CAGTCTGCCCTGCTGTTTACCAGCTGGAGA (double strand) [FoxA BS chr3:94456673 a]” was 0.29.
As to “CAGTCTCCCGGCCGGGGTTGACTCTCTCTGAGCT (double strand) [non-site chr8:87127281]”, the binding signal (EMSA score (TTR=1)) amounted to 0.11.
In the case of “CAGTGGCATCCGACTGATTTACTGAGCTGGTTCC (double strand) [non-site chr7:140707466 b]”, the binding signal (EMSA score (TTR=1)) stood at 0.

The series is the same for the next values; noted with them: negative control; 25 mM HEPES pH 7.6, 150 mM KCl, 0.2 mM EDTA, 0.2 mM EGTA, 10% glycerol, 1 mM DTT, 3 ug protein, 1 ng 32P-TTR probe, 2/5/20 ng competitor, on ice 15 min; 4% ….
In turn, “CGATCAAAACTAGGTCAAAGGTCA (double strand) [PPAR]” had a binding signal (EMSA score (TTR=1)) of 0.
